# Laboratory results as given in the Human Domainome abundance scans (Beltran et al. 2025).
# ± gives the uncertainty stated by the source.
# Assay: abundance fitness (aPCA) (normalised: wild type 0, dead -1); higher = more abundant; growth selection in yeast, the domain comes from the species named
# Conditions: Homo sapiens
row,Substance,abundance fitness
1,"Lipoamide acyltransferase component of branched-chain alpha-keto acid dehydrogenase complex, mitochondrial A173C, P11182",-0.163 ± 0.092
2,"Lipoamide acyltransferase component of branched-chain alpha-keto acid dehydrogenase complex, mitochondrial A173D, P11182",-0.296 ± 0.067
3,"Lipoamide acyltransferase component of branched-chain alpha-keto acid dehydrogenase complex, mitochondrial A173E, P11182",-0.219 ± 0.07
4,"Lipoamide acyltransferase component of branched-chain alpha-keto acid dehydrogenase complex, mitochondrial A173F, P11182",-0.439 ± 0.096
5,"Lipoamide acyltransferase component of branched-chain alpha-keto acid dehydrogenase complex, mitochondrial A173G, P11182",-0.287 ± 0.036
6,"Lipoamide acyltransferase component of branched-chain alpha-keto acid dehydrogenase complex, mitochondrial A173K, P11182",-0.391 ± 0.068
7,"Lipoamide acyltransferase component of branched-chain alpha-keto acid dehydrogenase complex, mitochondrial A173L, P11182",-0.411 ± 0.058
8,"Lipoamide acyltransferase component of branched-chain alpha-keto acid dehydrogenase complex, mitochondrial A173M, P11182",-0.135 ± 0.057
9,"Lipoamide acyltransferase component of branched-chain alpha-keto acid dehydrogenase complex, mitochondrial A173N, P11182",-0.424 ± 0.14
10,"Lipoamide acyltransferase component of branched-chain alpha-keto acid dehydrogenase complex, mitochondrial A173P, P11182",-0.406 ± 0.087
11,"Lipoamide acyltransferase component of branched-chain alpha-keto acid dehydrogenase complex, mitochondrial A173Q, P11182",-0.441 ± 0.048
12,"Lipoamide acyltransferase component of branched-chain alpha-keto acid dehydrogenase complex, mitochondrial A173R, P11182",-0.608 ± 0.04
13,"Lipoamide acyltransferase component of branched-chain alpha-keto acid dehydrogenase complex, mitochondrial A173S, P11182",-0.186 ± 0.046
14,"Lipoamide acyltransferase component of branched-chain alpha-keto acid dehydrogenase complex, mitochondrial A173T, P11182",-0.05 ± 0.042
15,"Lipoamide acyltransferase component of branched-chain alpha-keto acid dehydrogenase complex, mitochondrial A173V, P11182",-0.059 ± 0.054
16,"Lipoamide acyltransferase component of branched-chain alpha-keto acid dehydrogenase complex, mitochondrial A173W, P11182",-0.279 ± 0.071
17,"Lipoamide acyltransferase component of branched-chain alpha-keto acid dehydrogenase complex, mitochondrial A173Y, P11182",-0.153 ± 0.19
18,"Lipoamide acyltransferase component of branched-chain alpha-keto acid dehydrogenase complex, mitochondrial A176C, P11182",-0.173 ± 0.051
19,"Lipoamide acyltransferase component of branched-chain alpha-keto acid dehydrogenase complex, mitochondrial A176D, P11182",-0.047 ± 0.043
20,"Lipoamide acyltransferase component of branched-chain alpha-keto acid dehydrogenase complex, mitochondrial A176E, P11182",-0.043 ± 0.06
21,"Lipoamide acyltransferase component of branched-chain alpha-keto acid dehydrogenase complex, mitochondrial A176G, P11182",-0.074 ± 0.038
22,"Lipoamide acyltransferase component of branched-chain alpha-keto acid dehydrogenase complex, mitochondrial A176H, P11182",-0.128 ± 0.06
23,"Lipoamide acyltransferase component of branched-chain alpha-keto acid dehydrogenase complex, mitochondrial A176I, P11182",-0.115 ± 0.089
24,"Lipoamide acyltransferase component of branched-chain alpha-keto acid dehydrogenase complex, mitochondrial A176K, P11182",-0.312 ± 0.065

row,Substance,abundance fitness
1,"Lipoamide acyltransferase component of branched-chain alpha-keto acid dehydrogenase complex, mitochondrial A176L, P11182",-0.21 ± 0.046
2,"Lipoamide acyltransferase component of branched-chain alpha-keto acid dehydrogenase complex, mitochondrial A176M, P11182",-0.127 ± 0.043
3,"Lipoamide acyltransferase component of branched-chain alpha-keto acid dehydrogenase complex, mitochondrial A176N, P11182",-0.113 ± 0.097
4,"Lipoamide acyltransferase component of branched-chain alpha-keto acid dehydrogenase complex, mitochondrial A176P, P11182",-0.203 ± 0.043
5,"Lipoamide acyltransferase component of branched-chain alpha-keto acid dehydrogenase complex, mitochondrial A176Q, P11182",0.017 ± 0.058
6,"Lipoamide acyltransferase component of branched-chain alpha-keto acid dehydrogenase complex, mitochondrial A176R, P11182",-0.143 ± 0.036
7,"Lipoamide acyltransferase component of branched-chain alpha-keto acid dehydrogenase complex, mitochondrial A176S, P11182",-0.036 ± 0.039
8,"Lipoamide acyltransferase component of branched-chain alpha-keto acid dehydrogenase complex, mitochondrial A176T, P11182",-0.067 ± 0.051
9,"Lipoamide acyltransferase component of branched-chain alpha-keto acid dehydrogenase complex, mitochondrial A176V, P11182",-0.168 ± 0.041
10,"Lipoamide acyltransferase component of branched-chain alpha-keto acid dehydrogenase complex, mitochondrial A176W, P11182",-0.473 ± 0.045
11,"Lipoamide acyltransferase component of branched-chain alpha-keto acid dehydrogenase complex, mitochondrial A176Y, P11182",-0.16 ± 0.06
12,"Lipoamide acyltransferase component of branched-chain alpha-keto acid dehydrogenase complex, mitochondrial D197A, P11182",-0.235 ± 0.036
13,"Lipoamide acyltransferase component of branched-chain alpha-keto acid dehydrogenase complex, mitochondrial D197C, P11182",-0.319 ± 0.095
14,"Lipoamide acyltransferase component of branched-chain alpha-keto acid dehydrogenase complex, mitochondrial D197E, P11182",-0.098 ± 0.05
15,"Lipoamide acyltransferase component of branched-chain alpha-keto acid dehydrogenase complex, mitochondrial D197F, P11182",-0.26 ± 0.17
16,"Lipoamide acyltransferase component of branched-chain alpha-keto acid dehydrogenase complex, mitochondrial D197H, P11182",0.025 ± 0.11
17,"Lipoamide acyltransferase component of branched-chain alpha-keto acid dehydrogenase complex, mitochondrial D197I, P11182",-1.31 ± 0.15
18,"Lipoamide acyltransferase component of branched-chain alpha-keto acid dehydrogenase complex, mitochondrial D197K, P11182",-0.23 ± 0.048
19,"Lipoamide acyltransferase component of branched-chain alpha-keto acid dehydrogenase complex, mitochondrial D197L, P11182",-0.337 ± 0.055
20,"Lipoamide acyltransferase component of branched-chain alpha-keto acid dehydrogenase complex, mitochondrial D197M, P11182",-0.382 ± 0.082
21,"Lipoamide acyltransferase component of branched-chain alpha-keto acid dehydrogenase complex, mitochondrial D197P, P11182",-0.76 ± 0.13
22,"Lipoamide acyltransferase component of branched-chain alpha-keto acid dehydrogenase complex, mitochondrial D197Q, P11182",-0.183 ± 0.044
23,"Lipoamide acyltransferase component of branched-chain alpha-keto acid dehydrogenase complex, mitochondrial D197S, P11182",-0.205 ± 0.041
24,"Lipoamide acyltransferase component of branched-chain alpha-keto acid dehydrogenase complex, mitochondrial D197T, P11182",-0.45 ± 0.06
